# Data reported in patent US20250011363A1, “OPTIMIZED SHORTENED PEPTIDE THAT BINDS TO ACETYLCHOLINE RECEPTOR, AND USE THEREOF” (SKINMED CO., LTD., priority 2021, published 2025).
# Target: acetylcholine receptor (Homo sapiens, UniProt P02708)
# Experiment: SPR binding affinity (RU) of optimized 5mer/6mer/7mer peptides, Examples 6-7
# Details: SPR, Resonance Units; 5mer Bottom sequence (bottom combinations); peptides tested at 10 μM
# Protocol: Based on the frequencies of occurrence of the top 7 amino acids from Table 7 in Example 5, 600 peptides comprising these amino acids (top combinations) and those comprising the 13 less frequently occurring amino acids (bottom combinations) were synthesized for each series of 5mer, 6mer-1, and 6mer-2. The binding affinity of each sequence for the acetylcholine receptor was measured using Surface Plasmon Resonance (SPR) analysis method. The peptides were tested at a concentration of 10 μM. Additionally, the average binding affinities of the top and bottom combinations in each series are depicted in FIGS. 5-7.
# Representative peptides identified in Example 6, two in each library, including 5mers (73, 311) and 6mers-1 (43, 210) and 6mers-2 (136, 233), were compared with the pre-optimized 6mer, 5mer-ND, and Synake.
# Chain of acetylcholine receptor (P02708 21-457): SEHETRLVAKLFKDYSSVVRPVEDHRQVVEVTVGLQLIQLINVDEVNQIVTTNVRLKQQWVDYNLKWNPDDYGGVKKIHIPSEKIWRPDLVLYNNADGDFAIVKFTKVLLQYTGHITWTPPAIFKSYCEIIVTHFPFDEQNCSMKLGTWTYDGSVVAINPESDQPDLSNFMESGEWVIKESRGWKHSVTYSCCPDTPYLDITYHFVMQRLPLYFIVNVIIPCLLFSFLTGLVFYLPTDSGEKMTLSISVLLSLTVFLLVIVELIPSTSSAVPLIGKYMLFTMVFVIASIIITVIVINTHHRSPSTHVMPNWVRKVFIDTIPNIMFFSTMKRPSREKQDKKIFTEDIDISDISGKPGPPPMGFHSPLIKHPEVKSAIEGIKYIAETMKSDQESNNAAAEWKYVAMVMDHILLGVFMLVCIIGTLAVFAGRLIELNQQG
row,Substance,Binding affinity [Ru]
1,5mer-708 (KPKAR),20
2,5mer-709 (RHTIR),27
3,5mer-710 (KEKAR),21
4,5mer-711 (KECIK),32
5,5mer-712 (RADFK),18
6,5mer-713 (KYPKK),16
7,5mer-714 (RPCAK),32
8,5mer-715 (KCNGR),22
9,5mer-716 (KINVR),25
10,5mer-717 (KCKFR),20
11,5mer-718 (RNKKK),19
12,5mer-719 (KISER),21
13,5mer-720 (KDPKR),32
14,5mer-721 (RYSKK),22
15,5mer-722 (KNHKK),33
16,5mer-723 (RASPR),22
17,5mer-724 (KTTAK),14
18,5mer-725 (RNADR),19
19,5mer-726 (KATMK),33
20,5mer-727 (KMDAR),31
21,5mer-728 (KPHIK),19
22,5mer-729 (KEPDK),23
23,5mer-730 (KFCNK),27
24,5mer-731 (KADHK),18
25,5mer-732 (KIMWR),22
26,5mer-733 (KTCDR),23

row,Substance,Binding affinity [Ru]
1,5mer-734 (KATER),16
2,5mer-735 (RHCER),11
3,5mer-736 (KKHHR),24
4,5mer-737 (RINVR),13
5,5mer-738 (KTPMK),29
6,5mer-739 (KDCPR),16
7,5mer-740 (RMMGK),21
8,5mer-741 (KPTPR),14
9,5mer-742 (RNSDK),11
10,5mer-743 (KYAFR),15
11,5mer-744 (KTEAK),32
12,5mer-745 (RMEIK),14
13,5mer-746 (RMTVK),26
14,5mer-747 (RKTDK),31
15,5mer-748 (REPMK),12
16,5mer-749 (KHTWR),24
17,5mer-750 (KEADK),13
18,5mer-751 (RYMMR),20
19,5mer-752 (KAWVK),26
20,5mer-753 (RKTPK),30
21,5mer-754 (RKNER),29
22,5mer-755 (KNWDR),15
23,5mer-756 (RCDWR),18
24,5mer-757 (KYCMR),17
25,5mer-758 (KCDFK),30
26,5mer-759 (KHKMR),17

row,Substance,Binding affinity [Ru]
1,5mer-760 (RIWAR),19
2,5mer-761 (RMPWR),31
3,5mer-762 (KMPER),21
4,5mer-763 (RCHVR),30
5,5mer-764 (KTWPK),19
6,5mer-765 (RNEFR),12
7,5mer-766 (RNMEK),30
8,5mer-767 (RFHFK),12
9,5mer-768 (RDSWR),11
10,5mer-769 (KTEWK),32
11,5mer-770 (KKPFR),11
12,5mer-771 (RKWVK),24
13,5mer-772 (KYWFK),11
14,5mer-773 (RPNMR),25
15,5mer-774 (RTCDR),25
16,5mer-775 (RHTVK),23
17,5mer-776 (RCDFR),17
18,5mer-777 (RYNWK),28
19,5mer-778 (KKDHK),24
20,5mer-779 (KYPPR),21
21,5mer-780 (RDSHK),27
22,5mer-781 (RIDPR),28
23,5mer-782 (KANAR),32
24,5mer-783 (KCKVR),29
25,5mer-784 (RACEK),21
26,5mer-785 (KPTIR),31

row,Substance,Binding affinity [Ru]
1,5mer-786 (RFNKK),29
2,5mer-787 (KDNIR),17
3,5mer-788 (KYHGK),16
4,5mer-789 (KFWIR),12
5,5mer-790 (REAGK),33
6,5mer-791 (KTKMR),26
7,5mer-792 (RMEKK),31
8,5mer-793 (KKPHR),19
9,5mer-794 (KEAPK),20
10,5mer-795 (RTKKR),20
11,5mer-796 (KNWVR),17
12,5mer-797 (KETHK),15
13,5mer-798 (RETMK),13
14,5mer-799 (KDKPR),24
15,5mer-800 (KEAPR),29
16,5mer-801 (KFHGR),20
17,5mer-802 (RITVR),27
18,5mer-803 (RFSDR),11
19,5mer-804 (RNTIR),20
20,5mer-805 (RPTNR),27
21,5mer-806 (RKMFR),17
22,5mer-807 (RKNKK),20
23,5mer-808 (KFCIR),13
24,5mer-809 (RKSGK),15
25,5mer-810 (KFHKK),11
26,5mer-811 (KMTMR),32

# Same assay, conditions: SPR; peptides tested at 10 μM; 5mer Bottom sequence
row,Substance,Binding affinity [Ru]
1,5mer-812 (KTEGR),27
2,5mer-813 (RAHVR),21
3,5mer-814 (RITMR),11
4,5mer-815 (RKDHR),27
5,5mer-816 (RKPIK),26
6,5mer-817 (RHKDR),23
7,5mer-818 (KHWHR),12
8,5mer-819 (RNTIK),19
9,5mer-820 (RIMHK),28
10,5mer-821 (RESDR),12
11,5mer-822 (RAKGK),16
12,5mer-823 (KECFK),26
13,5mer-824 (KIDMK),13
14,5mer-825 (RDEKK),14
15,5mer-826 (KCKMK),11
16,5mer-827 (KKAGR),18
17,5mer-828 (RFCWR),27
18,5mer-829 (KCWHR),26
19,5mer-830 (RIDGK),25
20,5mer-831 (RAAGK),24
21,5mer-832 (RMHER),18
22,5mer-833 (KATAK),33

row,Substance,Binding affinity [Ru]
1,5mer-834 (RMNIK),15
2,5mer-835 (RFMMR),14
3,5mer-836 (REWNR),15
4,5mer-837 (RPMDR),28
5,5mer-838 (RHSMK),13
6,5mer-839 (RHHDK),26
7,5mer-840 (KDTAR),11
8,5mer-841 (KNEMR),22
9,5mer-842 (RHNVK),20
10,5mer-843 (KTTPK),17
11,5mer-844 (KTDPR),32
12,5mer-845 (RYEDR),15
13,5mer-846 (RPDWR),32
14,5mer-847 (KAPEK),28
15,5mer-848 (RYMVK),12
16,5mer-849 (KTWMK),15
17,5mer-850 (KYDIR),13
18,5mer-851 (KMCWK),19
19,5mer-852 (KDSMK),22
20,5mer-853 (RYHIK),13
21,5mer-854 (RNTER),21
22,5mer-855 (RFMKK),18

row,Substance,Binding affinity [Ru]
1,5mer-856 (KPPDR),23
2,5mer-857 (KMENR),23
3,5mer-858 (RIMGR),33
4,5mer-859 (KHNAR),26
5,5mer-860 (RCHAK),31
6,5mer-861 (KTKIR),20
7,5mer-862 (KKNAK),19
8,5mer-863 (REANR),16
9,5mer-864 (KYHPR),25
10,5mer-865 (RMMER),21
11,5mer-866 (RINWR),11
12,5mer-867 (KDSWK),14
13,5mer-868 (KMHFK),18
14,5mer-869 (KKHPK),31
15,5mer-870 (RCKVK),25
16,5mer-871 (RHSHR),21
17,5mer-872 (RKKWK),29
18,5mer-873 (RYNFR),32
19,5mer-874 (RIHMR),27
20,5mer-875 (KHCNK),33
